These results are taken from publication PMC5643146.

The target of this assay is xTCF1. Nature of the assay: co-IP; binding competition: HEK293T cells transfected with flag-TCF and β-cat1 or β-cat4 alone, together, or with β-cat2 as control; IP with FLAG-M2 beads; precipitated β-catenins quantified and normalised against total β-catenins in whole cell lysates.

As for Smed-β-catenin1 (natural protein), the relative binding to TCF, β-cat1 alone and β-cat1+β-cat2 co-transfected compared (negative control) was 1.11; the relative binding to TCF, β-cat1 alone and β-cat1+β-cat4 co-transfected compared is 0.63.

Turning to Smed-β-catenin4 (natural protein), the relative binding to TCF, β-cat4 alone and β-cat1+β-cat4 co-transfected compared was determined as 0.51; the relative binding to TCF, β-cat4 alone and β-cat4+β-cat2 co-transfected compared (negative control) was 0.91.
